Measured values: the supplement of paper PMC10567573

B1: CHMP4C (parent)
chain: TNIRLPNVPSSSLPAQPNRKPGMS
B2: FAM164A (parent)
chain: YDPDYIQCPYCQRRFNENAADRHI

Variants of: B1
Test: protein stability index of a GFP-peptide fusion (GPS, HEK-293T) (PSI 1-6); higher = more stable
Conditions: c terminus: a fixed tail appended
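Also: lentivirally expressed fusions sorted by FACS into six bins by GFP to DsRed ratio, PSI derived from sequencing read proportions per bin multiplied by bin number.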

Variant | protein stability index
TNIFLPNVPSSSLPAQPNRKPGMS [R4F] | 4.18
TNIQLPNVPSSSLPAQPNRKPGMS [R4Q] | 4.19
TNITLPNVPSSSLPAQPNRKPGMS [R4T] | 4.61
TNICLPNVPSSSLPAQPNRKPGMS [R4C] | 4.77
TNIWLPNVPSSSLPAQPNRKPGMS [R4W] | 2.96
TNIVLPNVPSSSLPAQPNRKPGMS [R4V] | 4.35
TNIGLPNVPSSSLPAQPNRKPGMS [R4G] | 4.69
TNIHLPNVPSSSLPAQPNRKPGMS [R4H] | 4.06
TNIILPNVPSSSLPAQPNRKPGMS [R4I] | 3.37
TNIELPNVPSSSLPAQPNRKPGMS [R4E] | 4.68
TNIKLPNVPSSSLPAQPNRKPGMS [R4K] | 3.88
TNISLPNVPSSSLPAQPNRKPGMS [R4S] | 4.29
TNIMLPNVPSSSLPAQPNRKPGMS [R4M] | 4.51
TNIPLPNVPSSSLPAQPNRKPGMS [R4P] | 4.73
TNIYLPNVPSSSLPAQPNRKPGMS [R4Y] | 4.24
TNINLPNVPSSSLPAQPNRKPGMS [R4N] | 2.96
TNILLPNVPSSSLPAQPNRKPGMS [R4L] | 4.26
TNIDLPNVPSSSLPAQPNRKPGMS [R4D] | 4.34
TNIALPNVPSSSLPAQPNRKPGMS [R4A] | 4.79
TYIRLPNVPSSSLPAQPNRKPGMS [N2Y] | 3.51
TWIRLPNVPSSSLPAQPNRKPGMS [N2W] | 3.01
TLIRLPNVPSSSLPAQPNRKPGMS [N2L] | 3.44

Variant | protein stability index
TTIRLPNVPSSSLPAQPNRKPGMS [N2T] | 4.59
TIIRLPNVPSSSLPAQPNRKPGMS [N2I] | 3.44
THIRLPNVPSSSLPAQPNRKPGMS [N2H] | 4.51
TVIRLPNVPSSSLPAQPNRKPGMS [N2V] | 4.16
TAIRLPNVPSSSLPAQPNRKPGMS [N2A] | 4.67
TGIRLPNVPSSSLPAQPNRKPGMS [N2G] | 4.24
TSIRLPNVPSSSLPAQPNRKPGMS [N2S] | 4.7
TKIRLPNVPSSSLPAQPNRKPGMS [N2K] | 4.24
TRIRLPNVPSSSLPAQPNRKPGMS [N2R] | 4.08
TPIRLPNVPSSSLPAQPNRKPGMS [N2P] | 5.25
TDIRLPNVPSSSLPAQPNRKPGMS [N2D] | 4.77
TEIRLPNVPSSSLPAQPNRKPGMS [N2E] | 5.05
TQIRLPNVPSSSLPAQPNRKPGMS [N2Q] | 4.27
TCIRLPNVPSSSLPAQPNRKPGMS [N2C] | 3.87
TMIRLPNVPSSSLPAQPNRKPGMS [N2M] | 4.66
TFIRLPNVPSSSLPAQPNRKPGMS [N2F] | 3.43
TNIRNPNVPSSSLPAQPNRKPGMS [L5N] | 4.68
TNIRFPNVPSSSLPAQPNRKPGMS [L5F] | 4.38
TNIRIPNVPSSSLPAQPNRKPGMS [L5I] | 4.61
TNIRPPNVPSSSLPAQPNRKPGMS [L5P] | 4.88
TNIRAPNVPSSSLPAQPNRKPGMS [L5A] | 4.71
TNIRCPNVPSSSLPAQPNRKPGMS [L5C] | 4.92

Variant | protein stability index
TNIRKPNVPSSSLPAQPNRKPGMS [L5K] | 4.71
TNIREPNVPSSSLPAQPNRKPGMS [L5E] | 4.46
TNIRDPNVPSSSLPAQPNRKPGMS [L5D] | 5.05
TNIRMPNVPSSSLPAQPNRKPGMS [L5M] | 4.76
TNIRGPNVPSSSLPAQPNRKPGMS [L5G] | 5.1
TNIRHPNVPSSSLPAQPNRKPGMS [L5H] | 4.62
TNYRLPNVPSSSLPAQPNRKPGMS [I3Y] | 4.33
TNLRLPNVPSSSLPAQPNRKPGMS [I3L] | 4.26
TNWRLPNVPSSSLPAQPNRKPGMS [I3W] | 4.13
TNGRLPNVPSSSLPAQPNRKPGMS [I3G] | 4.72
TNVRLPNVPSSSLPAQPNRKPGMS [I3V] | 4.54
TNCRLPNVPSSSLPAQPNRKPGMS [I3C] | 4.55
TNERLPNVPSSSLPAQPNRKPGMS [I3E] | 4.92
TNRRLPNVPSSSLPAQPNRKPGMS [I3R] | 4.41
TNKRLPNVPSSSLPAQPNRKPGMS [I3K] | 3.99
TNARLPNVPSSSLPAQPNRKPGMS [I3A] | 4.73
TNMRLPNVPSSSLPAQPNRKPGMS [I3M] | 4.76
TNPRLPNVPSSSLPAQPNRKPGMS [I3P] | 4.77
TNQRLPNVPSSSLPAQPNRKPGMS [I3Q] | 4.87
TNNRLPNVPSSSLPAQPNRKPGMS [I3N] | 4.81
TNTRLPNVPSSSLPAQPNRKPGMS [I3T] | 4.82
TNHRLPNVPSSSLPAQPNRKPGMS [I3H] | 4.62

Variant | protein stability index
TNDRLPNVPSSSLPAQPNRKPGMS [I3D] | 4.63
TNSRLPNVPSSSLPAQPNRKPGMS [I3S] | 4.71
TNFRLPNVPSSSLPAQPNRKPGMS [I3F] | 4.2
ENIRLPNVPSSSLPAQPNRKPGMS [T1E] | 3.75
SNIRLPNVPSSSLPAQPNRKPGMS [T1S] | 4.4
KNIRLPNVPSSSLPAQPNRKPGMS [T1K] | 4.55
QNIRLPNVPSSSLPAQPNRKPGMS [T1Q] | 4.75
NNIRLPNVPSSSLPAQPNRKPGMS [T1N] | 4.82
WNIRLPNVPSSSLPAQPNRKPGMS [T1W] | 3.62
ANIRLPNVPSSSLPAQPNRKPGMS [T1A] | 4.63
CNIRLPNVPSSSLPAQPNRKPGMS [T1C] | 4.14
VNIRLPNVPSSSLPAQPNRKPGMS [T1V] | 3.62
MNIRLPNVPSSSLPAQPNRKPGMS [T1M] | 4.17
INIRLPNVPSSSLPAQPNRKPGMS [T1I] | 3.03
HNIRLPNVPSSSLPAQPNRKPGMS [T1H] | 4.56
YNIRLPNVPSSSLPAQPNRKPGMS [T1Y] | 3.71
DNIRLPNVPSSSLPAQPNRKPGMS [T1D] | 4.71
LNIRLPNVPSSSLPAQPNRKPGMS [T1L] | 3.24
FNIRLPNVPSSSLPAQPNRKPGMS [T1F] | 3.6
RNIRLPNVPSSSLPAQPNRKPGMS [T1R] | 4.77
GNIRLPNVPSSSLPAQPNRKPGMS [T1G] | 4.8
PNIRLPNVPSSSLPAQPNRKPGMS [T1P] | 4.8

Variants of: B2
Test: as above
Conditions: c terminus: a fixed tail appended

Variant | protein stability index
YDPDYIQCPYCQRRFNENAFDRHI [A20F] | 3.87
YDPDYIQCPYCQRRFNENARDRHI [A20R] | 4.24
YDPDYIQCPYCQRRFNENAYDRHI [A20Y] | 3.78
YDPDYIQCPYCQRRFNENAQDRHI [A20Q] | 3.82
YDPDYIQCPYCQRRFNENATDRHI [A20T] | 3.93
YDPDYIQCPYCQRRFNENAVDRHI [A20V] | 4.36
